Measured values from patent US20260151494A1.

Columns and labels:
[1] = molecular target: apical domain of CD71 (Screen 3: 'cynomolgus apical domain of human CD71') (cynomolgus (as paragraph 454 words it; ambiguous)); assay: primary ELISA
[2] = molecular target: apical domain of CD71 (Screen 3: 'cynomolgus apical domain of human CD71') (cynomolgus (as paragraph 454 words it; ambiguous)); assay: primary ELISA, RLU ratio to HSA

Binder	RLU [1] [RLU]	Apical domain:HSA [2]
CD71-binding FN3 domain SEQ ID NO: 243 (designed binder) MSLPAPKNLVVSRVTEDSARLSWTAPDAAFDSFFIGYLEPQPPGEAIHLYVPGSERSYDLTGLKPGTEYNVTIQGVKGGEWSAPLSAIFTT	4.57e+06	582
CD71-binding FN3 domain SEQ ID NO: 264 (designed binder) MSLPAPKNLVVSRVTEDSARLSWTAPDAAFDSFFIGYLEPQPPGEAIALYVPGSERSYDLTGLKPGTEYNVTIQGVKGGFPSEPLVVHFTT	6.23e+06	549
CD71-binding FN3 domain SEQ ID NO: 258 (designed binder) MSLPAPKNLVVSRVTEDSARLSWTAPDAAFDSFFIGYLEPQPPGEAIVLGVPGSERSYDLTGLKPGTEYNVTIQGVKGGFPSDPLVASFTT	6.79e+06	302
CD71-binding FN3 domain SEQ ID NO: 262 (designed binder) MSLPAPKNLVVSRVTEDSARLSWTAPDAAFDSFFIGYLEPQPPGEVIHLFVPGSERSYDLTGLKPGTEYNVTIQGVKGGFPSDPLVASFTT	7.2e+06	562
CD71-binding FN3 domain SEQ ID NO: 257 (designed binder) MSLPAPKNLVVSHVTEDSARLSWTAPDAAFDSFEIGYWENAYKGEAIVLTVPGSERSYDLTGLKPGTEYVVFIGGVKGGVWSVPLSAIFTT	5.15e+06	687
CD71-binding FN3 domain SEQ ID NO: 253 (designed binder) MSLPAPKNLVVSRVTEDSARLSWTAPDAAFDSFDINYWENESGGEAIALFVPGSERSYDLTGLKPGTEYWVSIGGVKGGRFSEPLYARFTT	5.78e+06	530
CD71-binding FN3 domain SEQ ID NO: 259 (designed binder) MSLPAPKNLVVSRVTEDSARLSWTAPDAAFDSFYIAYAEPRPDGEAILLEVPGSERSYDLTGLKPGTEYSVLIHGVKGGLLSSPLSATFTT	5.16e+06	411
CD71-binding FN3 domain SEQ ID NO: 251 (designed binder) MSLPAPKNLVVSRVTEDSARLSWTAPDAAFDSFEIGYFENLYLGEAIVLTVPGSERSYDLTGLKPGTEYWVQIGGVKGGNWSAPLVATFTT	5.1e+06	903
CD71-binding FN3 domain SEQ ID NO: 246 (designed binder) MSLPAPKNLVVSRVTEDSARLSWTAPDAAFDSFEIAYQELSLWGEAIVLTVPGSERSYDLTGLKPGTEYYVHIGGVKGGIWSSPLSAYFTT	6.18e+06	609
CD71-binding FN3 domain SEQ ID NO: 242 (designed binder) MSLPAPKNLVVSRVTEDSARLSWTAPDAAFDSFEIGYFENLYLGEAIVLTVPGSERSYDLTGLKPGTKYWVQIGGVKGGNWSAPLSAIFTT	4.84e+06	493
CD71-binding FN3 domain SEQ ID NO: 268 (designed binder) MSLPAPKNLVVSRVTEDSARLSWTAPDAAFDSFEIGYFENLYLGEAIVLTVPGSERSYDPTGLKPGTEYWVQIGGVKGGNWSAPLSAIFTT	5.8e+06	188
CD71-binding FN3 domain SEQ ID NO: 274 (designed binder) MSLPAPKNLVVSRVTEDSARLSWTAPDAAFDSFEIVYWEQVGVGEAIVLTVPGSERSYDLTGLKPGTEYWVQIGGVKGGGFSEPLSAIFTT	4.64e+06	581
CD71-binding FN3 domain SEQ ID NO: 255 (designed binder) MSLPAPKNLVVSRVTEDSARLSWTTPDAAFDSFEIAYFEIAWLGEAIVLTVPGSERSYDLTGLKPGTEYWVQIGGVKGGAYSTPLSAIFTT	5.41e+06	131
CD71-binding FN3 domain SEQ ID NO: 254 (designed binder) MSLPAPKNLVVSRVTEDSARLSWTAPDAAFDSFEIGYFENLYLGEAIVLWVPGSERSYDLTGLKPGTEYWVQIGGVKGGNWSAPLSAIFTT	5.11e+06	448
CD71-binding FN3 domain SEQ ID NO: 239 (designed binder) MSLPAPKNLVVSRVTEDSARLSWTAPDAAFDSFEIVYQENSAYGEAIVLTVPGSERSYDLTGLKPGTEYWVQIGGVKGGNWSAPLSAIFTT	5.4e+06	442
CD71-binding FN3 domain SEQ ID NO: 269 (designed binder) MSLPAPKNLVVSRVTEDSARLSWTAPDAAFDSFEIGYFENDYFGEAIVLTVPGSERSYDLTGLKPGTEYVVFIGGVKGGNWSAPLSAIFTT	6.01e+06	481
CD71-binding FN3 domain SEQ ID NO: 263 (designed binder) MSLPAPKNLVVSRVTEDSARLSWTAPDAAFDSFEIGYFENLYLGEAIVLTVPGSERSYDLTGLKPGTEYWVQIGGVKGGNWSSPLSAIFTT	5.51e+06	344
CD71-binding FN3 domain SEQ ID NO: 244 (designed binder) MSLPAPKNLVVSRVTEDSARLSWTAPDAAFDSFEIGYFENLYLGEAIVLTVPGSERSYDLTGLKPGTEYVVFIGGVKGGEYSIPLSAIFTT	5.23e+06	630

Other lines, results leading:

RLU [1] [RLU]	Apical domain:HSA [2]	Binder
6.83e+06	71	CD71-binding FN3 domain SEQ ID NO: 240 (designed binder) MSLPAPKNLVVSRVTEDSARLSWTAPDAAFDSFHIWYFEKANEGEAIPLVVPGSERSYDLTGLKPGTEYDVDIGGVKGGAWSIPLGARFTT
6.3e+06	74	CD71-binding FN3 domain SEQ ID NO: 270 (designed binder) MSLPAPKNLVVSRVTEDSARLSWTAPDAAFDSFFIGYLEPQPPGEAIHLYVPGSERSYDLTGLKPGTEYNVTIQGVKGGFPSEPLIANSTT
7.41e+06	206	CD71-binding FN3 domain SEQ ID NO: 266 (designed binder) MSLPAPKNLVVSRVTEDSARLSWTAPDAAFDSFFIGYLEPQPPGEAIYLLVPGSERSYDLTGLKPGTEYNVTIQGVKGGFPSLPLVATFTT
6.76e+06	488	CD71-binding FN3 domain SEQ ID NO: 265 (designed binder) MSLPAPKNLVVSRVTEDSARLSWTAPDAAFDSFFIGYLEPQPPGEAISLYVPGSERSYDLTGLKPGTEYNVTIQGVKGGFPSDPLVAHFTT
4.94e+06	347	CD71-binding FN3 domain SEQ ID NO: 271 (designed binder) MSLPAPKNLVVSRITEDSARLSWTAPDAAFDSFEIGYWENAYKGEAIVLTVPGSERSYDLTGLKPGTEYVVFIGGVKGGVWSVPLSAIFTT
6.05e+06	1060	CD71-binding FN3 domain SEQ ID NO: 273 (designed binder) MLPAPKNLVVSRVTEDSARLSWTAPDAAFDSFEISYWEHTFNGEAIILFVPGSERSYDLTGLKPGTEYYVTIGGVKGGAWSPPLWAEFTT
6.21e+06	324	CD71-binding FN3 domain SEQ ID NO: 241 (designed binder) MSLPAPKNLVVSRVTEDSARLSWTAPDAAFDSFMIAYDEFIVWGEAVVLTVPGSERSYDLTGLKPGTEYLVEILGVKGGTISGPLSAIFTT
6.07e+06	610	CD71-binding FN3 domain SEQ ID NO: 245 (designed binder) MSLPAPKNLVVSRVTEDSARLSWTAPDAAFDSFEISYWEHTFNGEAIILFVPGSERSYDLTGLKPGTEYYVTIGGVKGGAWSPPLWAHFTT
6.05e+06	178	CD71-binding FN3 domain SEQ ID NO: 267 (designed binder) MSLPAPKNLVVSRVTEDSARLSWTAPDAAFDSFEISYWEHTFNGEAIILFVPGSERSYDLTGLKPGTEYYVTIGGVKGGAWSPPLWAEFTT
4.57e+06	714	CD71-binding FN3 domain SEQ ID NO: 261 (designed binder) MSLPAPKNLVVSRVTEDSARLSWTAPDAAFDSFYIAYAEPRPDGEAILLWVPGSERSYDLTGLKPGTEYSVLIHGVKGGLLSSPLHAYFTT
5.01e+06	672	CD71-binding FN3 domain SEQ ID NO: 237 (designed binder) MSLPAPKNLVVSRVTEDSARLSWTAPDAAFDSFEIAYFERTWFGEAIVLTVPGSERSYDLTGLKPGTEYWVQIGGVKGGDWSKPLSAIFTT
4.81e+06	556	CD71-binding FN3 domain SEQ ID NO: 249 (designed binder) MSLPAPKNLVVSRVTEDSARLSWTAPDAAFDSFEIGYWENAYRGEAIVLTVPGSERSYDLTGLKPGTEYVVFIGGVKGGVWSVPLSAIFTT
5.11e+06	211	CD71-binding FN3 domain SEQ ID NO: 250 (designed binder) MSLPAPKNLVVSRVTEDSARLSWTAPDAAFDSFEIGYFENLYLGEAIVLTVPGSERSYDLTGLKPGTEYWVQIGGVNGGNWSAPLSAIFTT
4.92e+06	399	CD71-binding FN3 domain SEQ ID NO: 256 (designed binder) MSLPVPKNLVVSRVTEDSARLSWTAPDAAFDSFEIGYFENLYLGEAIVLTVPGSERSYDLTGLKPGTEYWVQIGGVKGGNWSAPLSAIFTT
5.12e+06	550	CD71-binding FN3 domain SEQ ID NO: 248 (designed binder) MSLPAPKNLVVSRVTEDSARLSWTAPDAAFDSFEIGYFENLYLGEAIVLTVPGSERSYDLTGLKPGTEYVVFIGGVKGGDFSPPLSAIFTT
4.45e+06	679	CD71-binding FN3 domain SEQ ID NO: 247 (designed binder) MSLPAPKNLVVSRVTEDSARLSWTAPDAAFDSFEIGYFENLYLGEAIVLTVPGSERSYDLTGLKPGTEYWVQIGGVKGGEWSAPLSAIFTT
4.66e+06	476	CD71-binding FN3 domain SEQ ID NO: 272 (designed binder) MSLPAPKNLVVSRVTEDSARLSWTAPDAAFDSFEIAYGEAAYDGEAIALLVPGSERSYDLTGLKPGTEYWVQIGGVKGGNWSAPLSAIFTT
6.39e+06	954	CD71-binding FN3 domain SEQ ID NO: 238 (designed binder) MSLPAPKNLVVSRVTEDSARLSWTAPDAAFDSFEIGYFENDYFGEAIVLTVPGSERSYDLTGLKPGTEYVVFIGGVKGGKWSAPLSAIFTT
